{"source": "the supplement of paper PMC10065799", "about": "“High-throughput profiling of sequence recognition by tyrosine kinases and SH2 domains using bacterial peptide display” (eLife, 2023);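 also: 11-residue human phosphosite peptides and single-mutation variants displayed on the E. coli surface, counted by deep sequencing, each peptide's frequency after selection divided by its frequency in the unselected input library; frequency after pTyr selection over input frequency; kinase dosed for 20-30% of maximal phosphorylation in three min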"}
{"test_system": "AncSZ", "test": "phosphorylation enrichment, bacterial display (enrichment ratio); higher = better substrate or ligand; peptides without Tyr show the background"}
{"sequence": "GFKVRYATGSI [FGFR1_Y210_W213G_YF]", "phosphorylation enrichment": 0.628}
{"sequence": "KLADMYGGGKD [CDH1_Y876_E880K]", "phosphorylation enrichment": 0.584}
{"sequence": "HTKKNYGNSSV [HDX_Y197_A193T]", "phosphorylation enrichment": 0.443}
{"sequence": "TCFDKYTGSTF [FN1_Y101_N104S_YF]", "phosphorylation enrichment": 0.739}
{"sequence": "ECKASYPGKIT [PRSS3_Y232]", "phosphorylation enrichment": 0.53}
{"sequence": "GMAHNYRNSSQ [AASS_Y188]", "phosphorylation enrichment": 0.589}
{"sequence": "EFITRYIASLK [PSMA7_Y110_YF]", "phosphorylation enrichment": 0.84}
{"sequence": "RKLVDYDSAQH [BIN1_Y150_R154Q]", "phosphorylation enrichment": 0.548}
{"sequence": "KALKQYRASPS [DDX27_Y763_G766S]", "phosphorylation enrichment": 0.411}
{"sequence": "DEQKKYYNAMK [SCN5A_Y1494_E1489D]", "phosphorylation enrichment": 0.874}
{"sequence": "GDLTDYLMKIL [ACTA1_Y190_R185G]", "phosphorylation enrichment": 0.788}
{"sequence": "ISIFYYAKGQP [MPZ_Y82_H81Y]", "phosphorylation enrichment": 1.38}
{"sequence": "QNTGDYYDLYG [PTPN11_Y62]", "phosphorylation enrichment": 5.36}
{"sequence": "PAVGIYNDNIN [CDCP1_Y707]", "phosphorylation enrichment": 1.07}
{"sequence": "KAEELYIGVTV [EFHC2_Y509]", "phosphorylation enrichment": 2.15}
{"sequence": "QNTGDYCDLFG [PTPN11_Y62_Y63C_YF]", "phosphorylation enrichment": 3.53}
{"sequence": "ETGEPYRLSPE [EIF4G1_Y311]", "phosphorylation enrichment": 1.19}
{"sequence": "MTYVFYRENLR [NLRP14_Y443]", "phosphorylation enrichment": 1.64}
{"sequence": "LAVGDYMRRQK [ATM_Y1915_V1913G]", "phosphorylation enrichment": 0.696}
{"sequence": "ADKAAYLQNLN [MYH1_Y389]", "phosphorylation enrichment": 0.718}
{"sequence": "RKQQLYIAMEE [CCDC39_Y593_T594I]", "phosphorylation enrichment": 0.993}
{"sequence": "CTTIHYNFMHN [TP53_Y234_C238H_YF]", "phosphorylation enrichment": 0.829}
{"sequence": "NVTRKYTRQIL [MAP3K2_Y463]", "phosphorylation enrichment": 0.363}
{"sequence": "KVDKEYEVHVR [GHR_Y226_R229H]", "phosphorylation enrichment": 0.934}
{"sequence": "SDFSRYARTSI [TERT_Y949_S948R_YF]", "phosphorylation enrichment": 0.537}
{"sequence": "GEDLSYGDLPP [IRS1_Y151_V154L]", "phosphorylation enrichment": 1.3}
{"sequence": "GKGGSYSKAEW [HLA-E_Y341]", "phosphorylation enrichment": 0.493}
{"sequence": "QNTGDDYDLYG [PTPN11_Y62_Y62D]", "phosphorylation enrichment": 2.09}
{"sequence": "KIRDWYQRQRP [KRT14_Y151]", "phosphorylation enrichment": 0.621}
{"biological_target": "EPHB1 (UniProt P54762)", "sequence (P54762 whole entry, looked up)": "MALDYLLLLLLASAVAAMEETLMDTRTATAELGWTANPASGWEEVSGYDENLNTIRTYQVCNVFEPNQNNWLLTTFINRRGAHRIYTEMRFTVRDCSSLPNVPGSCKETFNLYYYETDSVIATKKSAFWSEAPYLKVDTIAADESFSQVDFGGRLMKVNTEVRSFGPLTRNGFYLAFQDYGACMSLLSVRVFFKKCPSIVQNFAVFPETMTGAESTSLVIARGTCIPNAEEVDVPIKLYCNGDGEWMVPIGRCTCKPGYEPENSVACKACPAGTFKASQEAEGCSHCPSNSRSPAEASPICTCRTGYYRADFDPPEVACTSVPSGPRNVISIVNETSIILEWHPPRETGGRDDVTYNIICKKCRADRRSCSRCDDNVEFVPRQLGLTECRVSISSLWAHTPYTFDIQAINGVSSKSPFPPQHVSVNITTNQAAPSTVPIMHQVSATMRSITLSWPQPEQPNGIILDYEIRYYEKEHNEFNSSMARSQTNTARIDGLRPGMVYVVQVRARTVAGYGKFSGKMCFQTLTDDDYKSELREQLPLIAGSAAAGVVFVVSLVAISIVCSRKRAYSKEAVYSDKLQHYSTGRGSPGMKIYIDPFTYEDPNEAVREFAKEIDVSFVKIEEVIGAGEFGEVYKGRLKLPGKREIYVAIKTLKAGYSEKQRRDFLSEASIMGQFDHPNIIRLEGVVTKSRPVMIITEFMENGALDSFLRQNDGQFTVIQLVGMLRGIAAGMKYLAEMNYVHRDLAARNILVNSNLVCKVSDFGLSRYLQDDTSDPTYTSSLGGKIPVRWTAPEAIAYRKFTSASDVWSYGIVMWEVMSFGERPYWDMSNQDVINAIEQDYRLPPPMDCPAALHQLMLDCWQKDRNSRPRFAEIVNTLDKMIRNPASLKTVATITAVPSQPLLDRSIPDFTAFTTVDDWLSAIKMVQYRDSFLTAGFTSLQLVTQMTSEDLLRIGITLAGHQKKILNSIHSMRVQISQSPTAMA", "test": "phosphorylation enrichment, bacterial display (enrichment ratio); higher = better substrate or ligand; peptides without Tyr show the background"}
{"sequence": "GFKVRYATGSI [FGFR1_Y210_W213G_YF]", "phosphorylation enrichment": 0.473}
{"sequence": "KLADMYGGGKD [CDH1_Y876_E880K]", "phosphorylation enrichment": 0.468}
{"sequence": "HTKKNYGNSSV [HDX_Y197_A193T]", "phosphorylation enrichment": 0.181}
{"sequence": "TCFDKYTGSTF [FN1_Y101_N104S_YF]", "phosphorylation enrichment": 0.494}
{"sequence": "ECKASYPGKIT [PRSS3_Y232]", "phosphorylation enrichment": 0.357}
{"sequence": "GMAHNYRNSSQ [AASS_Y188]", "phosphorylation enrichment": 0.255}
{"sequence": "EFITRYIASLK [PSMA7_Y110_YF]", "phosphorylation enrichment": 0.585}
{"sequence": "RKLVDYDSAQH [BIN1_Y150_R154Q]", "phosphorylation enrichment": 0.648}
{"sequence": "KALKQYRASPS [DDX27_Y763_G766S]", "phosphorylation enrichment": 0.312}
{"sequence": "DEQKKYYNAMK [SCN5A_Y1494_E1489D]", "phosphorylation enrichment": 0.613}
{"sequence": "GDLTDYLMKIL [ACTA1_Y190_R185G]", "phosphorylation enrichment": 0.508}
{"sequence": "ISIFYYAKGQP [MPZ_Y82_H81Y]", "phosphorylation enrichment": 0.532}
{"sequence": "QNTGDYYDLYG [PTPN11_Y62]", "phosphorylation enrichment": 16.7}
{"sequence": "PAVGIYNDNIN [CDCP1_Y707]", "phosphorylation enrichment": 0.806}
{"sequence": "KAEELYIGVTV [EFHC2_Y509]", "phosphorylation enrichment": 0.921}
{"sequence": "QNTGDYCDLFG [PTPN11_Y62_Y63C_YF]", "phosphorylation enrichment": 9.89}
{"sequence": "ETGEPYRLSPE [EIF4G1_Y311]", "phosphorylation enrichment": 0.733}
{"sequence": "MTYVFYRENLR [NLRP14_Y443]", "phosphorylation enrichment": 1.03}
{"sequence": "LAVGDYMRRQK [ATM_Y1915_V1913G]", "phosphorylation enrichment": 0.441}
{"sequence": "ADKAAYLQNLN [MYH1_Y389]", "phosphorylation enrichment": 0.44}
{"sequence": "RKQQLYIAMEE [CCDC39_Y593_T594I]", "phosphorylation enrichment": 0.651}
{"sequence": "CTTIHYNFMHN [TP53_Y234_C238H_YF]", "phosphorylation enrichment": 0.583}
{"sequence": "NVTRKYTRQIL [MAP3K2_Y463]", "phosphorylation enrichment": 0.333}
{"sequence": "KVDKEYEVHVR [GHR_Y226_R229H]", "phosphorylation enrichment": 0.68}
{"sequence": "SDFSRYARTSI [TERT_Y949_S948R_YF]", "phosphorylation enrichment": 0.463}
{"sequence": "GEDLSYGDLPP [IRS1_Y151_V154L]", "phosphorylation enrichment": 0.661}
{"sequence": "GKGGSYSKAEW [HLA-E_Y341]", "phosphorylation enrichment": 0.481}
{"sequence": "QNTGDDYDLYG [PTPN11_Y62_Y62D]", "phosphorylation enrichment": 0.985}
{"sequence": "KIRDWYQRQRP [KRT14_Y151]", "phosphorylation enrichment": 0.405}
{"biological_target": "EPHB2 (UniProt P29323)", "sequence (P29323 whole entry, looked up)": "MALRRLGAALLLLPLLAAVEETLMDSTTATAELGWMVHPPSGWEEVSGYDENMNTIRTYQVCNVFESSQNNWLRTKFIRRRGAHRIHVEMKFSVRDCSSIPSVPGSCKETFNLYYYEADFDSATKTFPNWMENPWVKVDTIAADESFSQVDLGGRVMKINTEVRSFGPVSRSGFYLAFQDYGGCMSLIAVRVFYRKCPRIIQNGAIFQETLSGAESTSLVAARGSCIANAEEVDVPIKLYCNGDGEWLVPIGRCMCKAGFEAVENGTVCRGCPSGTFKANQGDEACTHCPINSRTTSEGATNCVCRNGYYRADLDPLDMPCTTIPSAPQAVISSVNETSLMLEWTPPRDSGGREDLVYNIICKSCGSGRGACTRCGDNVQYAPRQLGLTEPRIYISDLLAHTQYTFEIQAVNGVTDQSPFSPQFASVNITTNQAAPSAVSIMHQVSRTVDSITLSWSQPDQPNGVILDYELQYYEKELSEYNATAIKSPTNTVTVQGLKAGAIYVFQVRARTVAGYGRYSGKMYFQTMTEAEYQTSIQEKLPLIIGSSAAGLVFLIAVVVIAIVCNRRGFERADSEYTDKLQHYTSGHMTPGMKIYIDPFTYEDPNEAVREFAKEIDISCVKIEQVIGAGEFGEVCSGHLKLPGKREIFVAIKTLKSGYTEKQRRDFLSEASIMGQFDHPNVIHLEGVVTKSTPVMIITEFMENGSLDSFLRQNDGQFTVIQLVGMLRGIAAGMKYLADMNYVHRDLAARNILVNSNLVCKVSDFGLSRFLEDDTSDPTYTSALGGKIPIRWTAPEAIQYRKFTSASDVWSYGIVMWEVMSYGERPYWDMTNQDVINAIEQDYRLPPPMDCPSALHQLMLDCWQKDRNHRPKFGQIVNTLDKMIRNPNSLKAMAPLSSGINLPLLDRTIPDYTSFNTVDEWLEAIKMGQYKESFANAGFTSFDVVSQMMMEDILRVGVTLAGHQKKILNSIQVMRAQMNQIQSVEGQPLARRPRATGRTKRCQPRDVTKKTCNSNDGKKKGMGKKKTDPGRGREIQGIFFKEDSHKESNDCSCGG", "test": "phosphorylation enrichment, bacterial display (enrichment ratio); higher = better substrate or ligand; peptides without Tyr show the background"}
{"sequence": "GFKVRYATGSI [FGFR1_Y210_W213G_YF]", "phosphorylation enrichment": 0.404}
{"sequence": "KLADMYGGGKD [CDH1_Y876_E880K]", "phosphorylation enrichment": 0.497}
{"sequence": "HTKKNYGNSSV [HDX_Y197_A193T]", "phosphorylation enrichment": 0.403}
{"sequence": "TCFDKYTGSTF [FN1_Y101_N104S_YF]", "phosphorylation enrichment": 0.533}
{"sequence": "ECKASYPGKIT [PRSS3_Y232]", "phosphorylation enrichment": 0.389}
{"sequence": "GMAHNYRNSSQ [AASS_Y188]", "phosphorylation enrichment": 0.47}
{"sequence": "EFITRYIASLK [PSMA7_Y110_YF]", "phosphorylation enrichment": 0.506}
{"sequence": "RKLVDYDSAQH [BIN1_Y150_R154Q]", "phosphorylation enrichment": 0.796}
{"sequence": "KALKQYRASPS [DDX27_Y763_G766S]", "phosphorylation enrichment": 0.344}
{"sequence": "DEQKKYYNAMK [SCN5A_Y1494_E1489D]", "phosphorylation enrichment": 0.543}
{"sequence": "GDLTDYLMKIL [ACTA1_Y190_R185G]", "phosphorylation enrichment": 0.476}
{"sequence": "ISIFYYAKGQP [MPZ_Y82_H81Y]", "phosphorylation enrichment": 0.61}
{"sequence": "QNTGDYYDLYG [PTPN11_Y62]", "phosphorylation enrichment": 17.8}
{"sequence": "PAVGIYNDNIN [CDCP1_Y707]", "phosphorylation enrichment": 0.685}
{"sequence": "KAEELYIGVTV [EFHC2_Y509]", "phosphorylation enrichment": 0.772}
{"sequence": "QNTGDYCDLFG [PTPN11_Y62_Y63C_YF]", "phosphorylation enrichment": 8.46}
{"sequence": "ETGEPYRLSPE [EIF4G1_Y311]", "phosphorylation enrichment": 0.68}
{"sequence": "MTYVFYRENLR [NLRP14_Y443]", "phosphorylation enrichment": 0.741}
{"sequence": "LAVGDYMRRQK [ATM_Y1915_V1913G]", "phosphorylation enrichment": 0.41}
{"sequence": "ADKAAYLQNLN [MYH1_Y389]", "phosphorylation enrichment": 0.52}
{"sequence": "RKQQLYIAMEE [CCDC39_Y593_T594I]", "phosphorylation enrichment": 0.822}
{"sequence": "CTTIHYNFMHN [TP53_Y234_C238H_YF]", "phosphorylation enrichment": 0.54}
{"sequence": "NVTRKYTRQIL [MAP3K2_Y463]", "phosphorylation enrichment": 0.264}
{"sequence": "KVDKEYEVHVR [GHR_Y226_R229H]", "phosphorylation enrichment": 0.548}
{"sequence": "SDFSRYARTSI [TERT_Y949_S948R_YF]", "phosphorylation enrichment": 0.466}
{"sequence": "GEDLSYGDLPP [IRS1_Y151_V154L]", "phosphorylation enrichment": 0.664}
{"sequence": "GKGGSYSKAEW [HLA-E_Y341]", "phosphorylation enrichment": 0.467}
{"sequence": "QNTGDDYDLYG [PTPN11_Y62_Y62D]", "phosphorylation enrichment": 1.63}
{"sequence": "KIRDWYQRQRP [KRT14_Y151]", "phosphorylation enrichment": 0.463}
{"biological_target": "FGFR1 (UniProt P11362)", "sequence (P11362 whole entry, looked up)": "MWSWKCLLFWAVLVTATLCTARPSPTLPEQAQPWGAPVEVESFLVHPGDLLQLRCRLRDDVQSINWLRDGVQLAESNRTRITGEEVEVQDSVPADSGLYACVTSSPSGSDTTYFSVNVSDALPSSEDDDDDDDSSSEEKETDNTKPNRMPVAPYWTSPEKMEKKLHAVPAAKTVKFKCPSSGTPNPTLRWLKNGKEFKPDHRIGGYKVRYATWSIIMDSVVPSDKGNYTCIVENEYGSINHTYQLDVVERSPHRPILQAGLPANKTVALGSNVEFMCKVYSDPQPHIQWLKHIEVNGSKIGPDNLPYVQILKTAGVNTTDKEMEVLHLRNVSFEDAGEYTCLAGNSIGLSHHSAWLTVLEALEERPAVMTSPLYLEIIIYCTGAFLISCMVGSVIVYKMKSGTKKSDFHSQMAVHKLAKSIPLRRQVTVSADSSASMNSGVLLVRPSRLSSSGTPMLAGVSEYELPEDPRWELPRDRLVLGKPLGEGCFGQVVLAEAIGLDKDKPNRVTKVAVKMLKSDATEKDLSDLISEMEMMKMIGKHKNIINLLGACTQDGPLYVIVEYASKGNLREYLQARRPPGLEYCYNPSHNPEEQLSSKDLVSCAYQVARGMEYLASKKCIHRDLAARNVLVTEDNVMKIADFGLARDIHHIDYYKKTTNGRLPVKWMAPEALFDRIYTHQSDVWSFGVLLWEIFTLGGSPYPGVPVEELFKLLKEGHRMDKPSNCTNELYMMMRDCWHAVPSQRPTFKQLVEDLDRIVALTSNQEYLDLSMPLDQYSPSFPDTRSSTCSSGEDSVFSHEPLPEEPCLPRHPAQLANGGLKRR", "test": "phosphorylation enrichment, bacterial display (enrichment ratio); higher = better substrate or ligand; peptides without Tyr show the background"}
{"sequence": "GFKVRYATGSI [FGFR1_Y210_W213G_YF]", "phosphorylation enrichment": 0.516}
{"sequence": "KLADMYGGGKD [CDH1_Y876_E880K]", "phosphorylation enrichment": 0.462}
{"sequence": "HTKKNYGNSSV [HDX_Y197_A193T]", "phosphorylation enrichment": 0.252}
{"sequence": "TCFDKYTGSTF [FN1_Y101_N104S_YF]", "phosphorylation enrichment": 0.443}
{"sequence": "ECKASYPGKIT [PRSS3_Y232]", "phosphorylation enrichment": 0.431}
{"sequence": "GMAHNYRNSSQ [AASS_Y188]", "phosphorylation enrichment": 0.371}
{"sequence": "EFITRYIASLK [PSMA7_Y110_YF]", "phosphorylation enrichment": 0.419}
{"sequence": "RKLVDYDSAQH [BIN1_Y150_R154Q]", "phosphorylation enrichment": 0.425}
{"sequence": "KALKQYRASPS [DDX27_Y763_G766S]", "phosphorylation enrichment": 0.328}
{"sequence": "DEQKKYYNAMK [SCN5A_Y1494_E1489D]", "phosphorylation enrichment": 0.575}
{"sequence": "GDLTDYLMKIL [ACTA1_Y190_R185G]", "phosphorylation enrichment": 0.437}
{"sequence": "ISIFYYAKGQP [MPZ_Y82_H81Y]", "phosphorylation enrichment": 0.563}
{"sequence": "QNTGDYYDLYG [PTPN11_Y62]", "phosphorylation enrichment": 17.1}
{"sequence": "PAVGIYNDNIN [CDCP1_Y707]", "phosphorylation enrichment": 0.612}
{"sequence": "KAEELYIGVTV [EFHC2_Y509]", "phosphorylation enrichment": 2.35}
{"sequence": "QNTGDYCDLFG [PTPN11_Y62_Y63C_YF]", "phosphorylation enrichment": 5.82}
{"sequence": "ETGEPYRLSPE [EIF4G1_Y311]", "phosphorylation enrichment": 0.58}
{"sequence": "MTYVFYRENLR [NLRP14_Y443]", "phosphorylation enrichment": 0.653}
{"sequence": "LAVGDYMRRQK [ATM_Y1915_V1913G]", "phosphorylation enrichment": 0.437}
{"sequence": "ADKAAYLQNLN [MYH1_Y389]", "phosphorylation enrichment": 0.458}
{"sequence": "RKQQLYIAMEE [CCDC39_Y593_T594I]", "phosphorylation enrichment": 0.8}
{"sequence": "CTTIHYNFMHN [TP53_Y234_C238H_YF]", "phosphorylation enrichment": 0.457}
{"sequence": "NVTRKYTRQIL [MAP3K2_Y463]", "phosphorylation enrichment": 0.316}
{"sequence": "KVDKEYEVHVR [GHR_Y226_R229H]", "phosphorylation enrichment": 0.474}
{"sequence": "SDFSRYARTSI [TERT_Y949_S948R_YF]", "phosphorylation enrichment": 0.48}
{"sequence": "GEDLSYGDLPP [IRS1_Y151_V154L]", "phosphorylation enrichment": 0.597}
{"sequence": "GKGGSYSKAEW [HLA-E_Y341]", "phosphorylation enrichment": 0.466}
{"sequence": "QNTGDDYDLYG [PTPN11_Y62_Y62D]", "phosphorylation enrichment": 0.82}
{"sequence": "KIRDWYQRQRP [KRT14_Y151]", "phosphorylation enrichment": 0.415}
